Laboratory results published in paper PMC9212912 (Structure (London, England : 1993), 2022).
Ends that are not written are not given here.

B1: monoacetylated SARS-CoV-2 E^K63ac peptide (aa 60–68 of SARS-CoV-2 E) (peptide)
peptide: SRVK(Ac)NLNSS
B2: FAM-SARS-CoV-2 E^55–66 peptide (peptide)
peptide: {FAM}-SFYVYSRVKNLN
B3: SARS-CoV-2 E^53−72 peptide (aa 53–72 of SARS-CoV-2 E) (peptide)
peptide: KPSFYVYSRVKNLNSSRVPD
B4: monoacetylated SARS-CoV-2 E^K53ac peptide (aa 50–55 of SARS-CoV-2 E) (peptide)
peptide: SLVK(Ac)PS

Columns and labels:
[1] = molecular target: BRD4 bromodomain 1 (residues 43–180) (human, UniProt O60885 43-180); assay: NMR titration
[2] = molecular target: T1, BRD4 ET domain (600–700) (human, UniProt O60885 600-700); assay: MST
[3] = molecular target: T1, BRD4 ET domain (600–700); assay: NMR titration

Binder | Kd [1] | other results
B1 | 660 µM | 
B2 |  | Kd [2]: 50 µM
B3 |  | binding result [3]: binds
B4 | > 1000 µM | 
